According to patent US7598354 (NATIONAL RESEARCH COUNCIL OF CANADA, dated 2009):

B1: Cj0638c, inorganic pyrophosphatase (Ppa) (enzyme)
chain: MNLSKIKIGDIPNKINAVIEIPYGSNIKYEIDKDSGAIMVDRVMASAIFYPANYGFIANTLADDGDPVDILVLNEYPIQAGAVIPCRLIGVLIMEDESGMDEKLLAVPNSKIDARYDNIKTYTDLPQATLNKIKNFFETYKILEPNKWVKVQDFKDEKAAIEILEKAIKNYK
B2: Cj0332c, nucleoside diphosphate kinase (Ndk) (enzyme)
chain: MEKTLSIIKPDAVKKGVIGKILDRFESNGLRIAAMKKVQLSKEQAENFYAVHKERPFFKDLVEFMISGPVVVSILEGEGAVLKNRDLMGATNPKEAKAGTIRADFAESIDANAVHGSDSLENAKIEIEFFFKPNEIC
B3: Cj0169, superoxide dismutase (Fe; SodB) (enzyme)
chain: MFELRKLPYDTNAFGDFLSAETFSYHHGKHHNTYVTNLNNLIKDTEFAGKDLVSIIKTSNGGVFNNAAQVYNHDFYFDCIKPSTGCGCGGSCQSIDANLQAALEKEFGSLENFKAEFIKGATGVFGSGWFWLVYNTKNQKLEFVGTSNAATPITEDKVPLLVVDVWEHAYYVDHRNARPAYLEKFYAHINWEFVAKAYEWALKEGMGSVSFYANELHPVK

These binders were tested against T1, soybean agglutinin (SBA)-alkaline phosphatase conjugate (soybean, UniProt P05046 33-285, conjugated to alkaline phosphatase (EY Laboratories)) (assay: Western blot of 2D gel probed with SBA-alkaline phosphatase conjugate).
T1 construct: Lectin; Alkaline phosphatase part not described; also called GalNAc-specific lectin; SBA lectin
T1 sequence (P05046 33-285 limits assumed): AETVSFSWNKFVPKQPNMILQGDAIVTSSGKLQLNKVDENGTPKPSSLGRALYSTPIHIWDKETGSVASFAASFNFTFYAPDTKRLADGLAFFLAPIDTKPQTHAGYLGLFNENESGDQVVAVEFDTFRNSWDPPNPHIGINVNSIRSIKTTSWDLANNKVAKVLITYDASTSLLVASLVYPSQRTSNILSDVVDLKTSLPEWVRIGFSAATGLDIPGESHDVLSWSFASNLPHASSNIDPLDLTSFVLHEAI
B1: no binding (tested: 10 µg/mL).
B2: no binding (tested: 10 µg/mL).
B3: no binding (tested: 10 µg/mL).
